B1: A/B probe (dsDNA)
DNA 1: AATTCGCTATTTTGGAAACTCCCCTTAGGGGATGCCCCTCAACTGCG
DNA 2: CGCAGTTGAGGGGCATCCCCTAAGGGGAGTTTCCAAAATAGCGAATT
B2: B probe (dsDNA)
DNA 1: AATTCGCTAGGGGATGCCCCTCAACTGCG
DNA 2: CGCAGTTGAGGGGCATCCCCTAGCGAATT
B3: kB probe (dsDNA)
DNA 1: AATTCGTCAGAGGGGACTTTCCGAGAG
DNA 2: CTCTCGGAAAGTCCCCTCTGACGAATT
B4: E probe (dsDNA)
DNA 1: AATTCTTTGTGCAATTTCACTTATGATACCG
DNA 2: CGGTATCATAAGTGAAATTGCACAAAGAATT
B5: A probe (dsDNA)
DNA 1: AATTCGTTGCTATTTTGGAAACTCCCCTTG
DNA 2: CAAGGGGAGTTTCCAAAATAGCAACGAATT
B6: C probe (dsDNA)
DNA 1: AATTCTCTAGATGAGAGAGCAGTGAGGGAGAGACG
DNA 2: CGTCTCTCCCTCACTGCTCTCTCATCTAGAGAATT

Experimental findings from patent US6376240, “RFLAT-1: a transcription factor that activates RANTES gene expression” (Board of Trustees of the Leland Stanford Junior Unversity) are described below.

T1 sequence (Q9Y2Y9 other isoform, or with tags, fused parts or gaps): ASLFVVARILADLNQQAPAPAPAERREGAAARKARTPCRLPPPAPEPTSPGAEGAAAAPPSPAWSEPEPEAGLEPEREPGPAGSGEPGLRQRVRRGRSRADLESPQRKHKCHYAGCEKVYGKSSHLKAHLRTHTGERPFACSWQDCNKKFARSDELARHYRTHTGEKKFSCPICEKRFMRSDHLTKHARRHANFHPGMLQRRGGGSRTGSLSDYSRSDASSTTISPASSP

For the first data set, the target named is T1, RFLAT-1 C-terminal portion (aa 59-288) (homo sapien, UniProt Q9Y2Y9 SEQ:59-288). The data set is described as follows: EMSA; two retarded bands, possible oligomerization. The settings on record: tags: His6 (pET-28a); label: 32P. The method, then:
(§1) The wells were incubated in blocking buffer (5% goat serum, 5% horse serum, 0.1% Triton X-100 in PBS), washed in PBS supplemented with 0.1% Triton X-100, and incubated with antigen purified rabbit polyclonal anti-RFLAT-1 (1:500 [v/v]) or rabbit IgG (1:500 [v/v]) (Santa Cruz Biotechnology, Santa Cruz, Calif.). The wells were washed, incubated with goat anti-rabbit FITC (1:2000 [v/v]) (Caltag, Burlingame, Calif.), and anti-FITC Alexa™ 488 (1:2000 [v/v]) (Molecular Probes, Eugene, Oreg.). Finally, the slide was washed with PBS, covered with mounting media (1:3 [v/v], Vectashield with propidium iodide) (Vector, Burlingame, Calif.), cover slipped and sealed. EMSA and supershift assays were performed essentially as described by Ortiz et al., 1996, supra. Oligonucleotides were synthesized by Life Technologies, Inc. (Gaithersburg, Md.) and purified by a polyacrylamide-urea gel. Oligonucleotides were end-labeled using [γ-^32P] ATP and T4 polynucleotide kinase. The following oligonucleotides were used:
(§2) A carboxyl terminal portion of RFLAT-1, including the zinc finger DNA binding domain (nucleotides 550–1430), was isolated through expression cloning using an oligonucleotide probe containing three tandem A sites of the RANTES promoter.
On the technique in general: Mobility shift assays separate free from complexed probe on a gel.
Turning to B1, the binding result is recorded as “binds”.

The target in a further data set is T1, RFLAT-1 C-terminal portion (aa 59-288). The data set is described as follows: EMSA. The following applies: tags: His6 (pET-28a); label: 32P. The method, then:
as §1, §2
In the case of B2, the binding result is listed as “no binding”.
On to B3, for which the binding result is listed as “no binding”.
Regarding B4, the binding result is “no binding”.
For the molecule B5, the binding result is “binds”.
On to B6, for which the binding result is given as “no binding”.
